Common to all, as to assay: cell-based or functional assay
In experiment [1] the target is F protein of RSV clinical isolate B2-6556 (Respiratory Syncytial Virus).
In experiment [2] the target is F protein of RSV clinical isolate A2-626 (Respiratory Syncytial Virus).
Experiment [3] concerns the target F protein of RSV clinical isolate A1-V1763 (Respiratory Syncytial Virus).
Experiment [4] addresses F protein of RSV clinical isolate A3-7062 (Respiratory Syncytial Virus).
The target of experiment [5] is F protein of RSV clinical isolate A2-847 (Respiratory Syncytial Virus).
Experiment [6] has as its target F protein of RSV clinical isolate B3-447 (Respiratory Syncytial Virus).
In experiment [7] the target is F protein of RSV clinical isolate A4-6652 (Respiratory Syncytial Virus).
The target of experiment [8] is F protein of RS 9320 (prototype B1) (Respiratory Syncytial Virus).
Experiment [9] has as its target F protein of RS Long strain virus (native form, on virus and infected VERO cells) (Respiratory Syncytial Virus) (UniProt P12568).
The target in experiment [10] is F protein of RSV clinical isolate B1-6973 (Respiratory Syncytial Virus).

Chain of F protein of RS Long strain virus (native form, on virus and infected VERO cells) (Respiratory Syncytial Virus) (P12568 26-574): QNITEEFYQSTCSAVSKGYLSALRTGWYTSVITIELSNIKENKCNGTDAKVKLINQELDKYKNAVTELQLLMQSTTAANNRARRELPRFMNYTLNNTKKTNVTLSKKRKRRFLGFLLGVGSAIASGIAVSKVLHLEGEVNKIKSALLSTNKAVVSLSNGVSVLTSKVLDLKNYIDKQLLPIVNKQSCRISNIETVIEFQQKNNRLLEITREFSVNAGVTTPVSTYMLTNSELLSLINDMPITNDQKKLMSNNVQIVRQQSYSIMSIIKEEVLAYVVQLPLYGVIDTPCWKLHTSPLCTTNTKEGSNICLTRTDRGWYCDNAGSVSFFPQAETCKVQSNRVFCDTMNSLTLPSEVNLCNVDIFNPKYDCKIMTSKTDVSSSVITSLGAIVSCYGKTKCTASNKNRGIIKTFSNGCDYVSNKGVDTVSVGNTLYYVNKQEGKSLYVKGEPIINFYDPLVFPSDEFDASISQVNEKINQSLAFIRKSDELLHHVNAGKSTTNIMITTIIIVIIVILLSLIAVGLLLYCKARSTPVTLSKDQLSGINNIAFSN

With SB 209763 (antibody), the Fusion-Inhibition Titer EC50 in experiment [1] stood at 2.05 µg/mL; in [2] it was 0.36 µg/mL; in experiment [3], 1.95 µg/mL; in experiment [4] it was 1.67 µg/mL; in experiment [5], 0.27 µg/mL; in experiment [6], 1.7 µg/mL. Besides, the Fusion-Inhibition Titer EC50 in experiment [7] came to 1.52 µg/mL; in [8] it was 2.5 µg/mL; in experiment [9], 1.3 µg/mL; in experiment [10] it was 2.22 µg/mL.
